{"source": "paper PMC9472474", "target": "T1, GST-RBM45 (6xHis-GST) (human, UniProt Q8IUH3 1-476)", "T1 sequence": "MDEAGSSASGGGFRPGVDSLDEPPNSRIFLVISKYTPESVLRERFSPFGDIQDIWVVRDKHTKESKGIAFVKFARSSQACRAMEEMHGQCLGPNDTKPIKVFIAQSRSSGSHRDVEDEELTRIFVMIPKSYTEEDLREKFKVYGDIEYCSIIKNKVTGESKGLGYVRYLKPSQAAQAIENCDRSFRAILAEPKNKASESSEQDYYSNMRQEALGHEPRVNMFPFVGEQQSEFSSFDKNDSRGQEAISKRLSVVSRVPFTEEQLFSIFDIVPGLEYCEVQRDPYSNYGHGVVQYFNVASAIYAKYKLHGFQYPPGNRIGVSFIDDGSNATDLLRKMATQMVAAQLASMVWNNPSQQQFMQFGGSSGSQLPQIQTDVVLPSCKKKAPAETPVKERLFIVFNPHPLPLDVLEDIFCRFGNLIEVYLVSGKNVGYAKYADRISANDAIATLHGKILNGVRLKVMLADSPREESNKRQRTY", "experiment": "fluorescence polarization"}
{"binder": "UUCUUCUGUGGACUGUG (ssRNA, m6A at A12)", "note": "[FAM m6A ssRNA]", "values": [{"measurement": "Kd", "result": "462 ± 73", "unit": "nM"}]}
